In one data set the target is T1, MBD2 (residues 145–411) (UniProt Q9UBB5 145-411).
T1 construct: also called untagged MBD2; source: HEK293F, co-transfected, in lysate; co-purified (FLAG resin, TEV protease, Superose 6)
Nature of the data set: co-IP; HEK293F cells co-transfected with His10-Flag3-MTA1 construct, HDAC1 and MBD2; clarified lysate on FLAG resin 30 min, washes in 50 mM Tris-HCl pH 7.5, 100 mM potassium acetate, 5% glycerol, RNase A, elution with TEV protease; SDS-PAGE; DNA ratios 1:1:1 and 1:1:4. The following applies: partners not purified.

The target in data set [1] is T2, Strep-MBD2 (residues 114–411) (UniProt Q9UBB5 114-411).
T2 construct: MBD2, residues 114–411; source: HEK293F, co-transfected, in lysate; co-purified (FLAG resin, TEV protease, Superose 6)
T2 sequence (Q9UBB5 114-411): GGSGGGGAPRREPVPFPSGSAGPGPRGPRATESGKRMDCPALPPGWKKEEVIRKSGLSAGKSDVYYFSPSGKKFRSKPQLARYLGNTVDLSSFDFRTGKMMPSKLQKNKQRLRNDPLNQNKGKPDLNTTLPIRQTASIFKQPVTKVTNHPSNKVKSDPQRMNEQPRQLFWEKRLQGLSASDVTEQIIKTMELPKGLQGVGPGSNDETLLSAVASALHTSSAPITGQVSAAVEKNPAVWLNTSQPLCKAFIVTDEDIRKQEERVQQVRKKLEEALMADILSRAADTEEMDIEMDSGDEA
The data set is described as above. The following applies: partners not purified.

In data set [2] the target is T3, HDAC1 (residues 1–482) (UniProt Q13547 1-482).
T3 construct: Two copies stand in the HDAC1:MTA1 dimer complex; also called histone deacetylase 1; source: HEK293F, co-transfected, in lysate; co-purified (FLAG resin, TEV protease, Superose 6)
T3 sequence (Q13547 whole entry, the tested form may be a part): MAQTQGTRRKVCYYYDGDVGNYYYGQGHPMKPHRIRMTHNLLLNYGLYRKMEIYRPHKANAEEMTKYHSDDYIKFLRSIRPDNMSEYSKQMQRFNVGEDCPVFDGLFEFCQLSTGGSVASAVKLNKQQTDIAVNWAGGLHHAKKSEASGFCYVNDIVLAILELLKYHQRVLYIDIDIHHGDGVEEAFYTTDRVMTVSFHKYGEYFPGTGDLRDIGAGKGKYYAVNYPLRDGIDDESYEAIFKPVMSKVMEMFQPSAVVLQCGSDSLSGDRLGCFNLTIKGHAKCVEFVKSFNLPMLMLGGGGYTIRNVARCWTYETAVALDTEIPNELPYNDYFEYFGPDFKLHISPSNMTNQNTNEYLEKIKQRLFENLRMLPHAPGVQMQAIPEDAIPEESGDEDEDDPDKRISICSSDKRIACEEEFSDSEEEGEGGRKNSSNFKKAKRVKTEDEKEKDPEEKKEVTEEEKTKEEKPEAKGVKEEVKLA
Described as above. The following applies: partners not purified.

Data set [3] deals with the molecule itself. Briefly: SEC-MALS; peak fraction of the gel filtration-pure HDAC1:MTA1:MBD2 complex re-run on Superose 6 with refractive index and MALS detectors. A general note: In gel filtration, larger molecules generally elute earlier.
Data set [4] deals with the molecule itself. Briefly: SEC; FLAG-purified, TEV-eluted co-expressed complex run on a Superose 6 column; fractions on SDS-PAGE.
Data set [5] deals with the molecule itself. Nature of the data set: cryo-EM structure; co-expressed complexes purified by gel filtration, on graphene oxide grids; maps of 6.1, 4.5 and 19 Å with known structures docked as rigid bodies.
Data set [6] has as its target T3, HDAC1 (residues 1–482). The data set is described as above. The following applies: both partners purified.

T1 sequence (Q9UBB5 145-411): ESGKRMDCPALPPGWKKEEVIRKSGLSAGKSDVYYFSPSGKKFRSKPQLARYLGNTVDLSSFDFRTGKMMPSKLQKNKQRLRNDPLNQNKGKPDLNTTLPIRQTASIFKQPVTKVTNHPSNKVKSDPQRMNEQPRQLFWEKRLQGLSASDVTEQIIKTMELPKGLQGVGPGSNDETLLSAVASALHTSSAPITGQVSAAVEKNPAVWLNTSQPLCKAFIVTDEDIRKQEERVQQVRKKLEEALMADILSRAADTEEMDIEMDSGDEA

B1: MTA1 ELM2-SANT domain (residues 162–354) (domain or fragment, UniProt Q13330 162-354, looked up)
chain: ADKGEIRVGNRYQADITDLLKEGEEDGRDQSRLETQVWEAHNPLTDKQIDQFLVVARSVGTFARALDCSSSVRQPSLHMSAAAASRDITLFHAMDTLHKNIYDISKAISALVPQGGPVLCRDEMEEWSASEANLFEEALEKYGKDFTDIQQDFLPWKSLTSIIEYYYMWKTTDRYVQQKRLKAAEAESKLKQV
notes: The tag held the complex on the FLAG resin; it was cleaved off by TEV protease before gel filtration, SEC-MALS, the Strep-Tactin step and cryo-EM; also called MTA1 wildtype; source: HEK293F, co-transfected, in lysate; co-purified (FLAG resin, TEV protease, Superose 6); not shown: His10-Flag3, N-terminal, kept
In general, stoichiometry N refers to a count of units in the complex or per binding partner. For B1, the binding result (in the data set with MBD2 (residues 145–411); in data set [1]; with HDAC1 (residues 1–482) [2]) was “binds” each time. Also, the “stoichiometry N” value in data set [3] was determined as 2.

B2: MTA1-Δ12 (MTA1 162–354 with part of ELM2 helix 2 deleted) (domain or fragment, UniProt Q13330 162-354, looked up)
chain: ADKGEIRVGNRYQADITDLLKEGEEDGRDQSRLETQVWEAHNPLTDKQIDQFLVVARSVGTFARALDCSSAASRDITLFHAMDTLHKNIYDISKAISALVPQGGPVLCRDEMEEWSASEANLFEEALEKYGKDFTDIQQDFLPWKSLTSIIEYYYMWKTTDRYVQQKRLKAAEAESKLKQV
notes: Tag cleaved off by TEV protease before the gel filtration; Runs as a dimeric and a monomeric species on Superose 6; source: HEK293F, co-transfected, in lysate; co-purified (FLAG resin, TEV protease, Superose 6); not shown: His10-Flag3, N-terminal, kept
For the molecule B2, the binding result (in data set [4]; with MBD2 (residues 145–411); with HDAC1 (residues 1–482) [2]) was “binds” in each case.

B3: MTA1 BAH-ELM2-SANT-ZnF (residues 1–453) (domain or fragment, UniProt Q13330 1-453, looked up)
chain: MAANMYRVGDYVYFENSSSNPYLIRRIEELNKTANGNVEAKVVCFYRRRDISSTLIALADKHATLSVCYKAGPGADNGEEGEIEEEMENPEMVDLPEKLKHQLRHRELFLSRQLESLPATHIRGKCSVTLLNETESLKSYLEREDFFFYSLVYDPQQKTLLADKGEIRVGNRYQADITDLLKEGEEDGRDQSRLETQVWEAHNPLTDKQIDQFLVVARSVGTFARALDCSSSVRQPSLHMSAAAASRDITLFHAMDTLHKNIYDISKAISALVPQGGPVLCRDEMEEWSASEANLFEEALEKYGKDFTDIQQDFLPWKSLTSIIEYYYMWKTTDRYVQQKRLKAAEAESKLKQVYIPNYNKPNPNQISVNNVKAGVVNGTGAPGQSPGAGRACESCYTTQSYQWYSWGPPNMQCRLCASCWTYWKKYGGLKMPTRLDGERPGPNRSNMSPHGL
notes: MTA1, BAH, ELM2, SANT and GATA zinc finger domains, residues 1–453; also called extended MTA1 construct; source: HEK293F, co-transfected; co-purified (FLAG resin, TEV protease, Superose 6); not shown: His10-Flag3, N-terminal, cleaved
For the molecule B3, the binding result (in data set [5]; with HDAC1 (residues 1–482) [6]) was “binds” in each case.
